Values of other authors, collected in article PMC2709459 (Biochimica et biophysica acta, 2008).

Biological target: C5aR
Conditions: C5aR in transfected CHO cells

B1: C5a: complement C5a fragment, anaphylatoxin ligand of C5aR (protein, UniProt P01031 678-751, looked up)
C5a anaphylatoxin: TLQKKIEEIAAKYKHSVVKKCCYDGACVNNDETCEQRAARISLGPRCIKAFTECCVVASQLRANISHKDMQLGR
modifications: C5a anaphylatoxin
In the case of B1, the Kd is given as 10 nM.
